Earlier results on two substances are cited in publication PMC8465902.

The target of data set [1] is IscU (Escherichia coli) (UniProt P0ACD4).
For data set [2], the target named is ISCU (Homo sapiens) (UniProt Q9H1K1).
Sequence of UniProt Q9H1K1 (Q9H1K1 35-167): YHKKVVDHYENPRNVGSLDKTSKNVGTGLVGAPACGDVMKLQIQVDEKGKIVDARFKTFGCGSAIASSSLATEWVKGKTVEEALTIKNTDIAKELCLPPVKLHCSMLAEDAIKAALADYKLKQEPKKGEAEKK

Sequence of UniProt P0ACD4 (P0ACD4 whole entry): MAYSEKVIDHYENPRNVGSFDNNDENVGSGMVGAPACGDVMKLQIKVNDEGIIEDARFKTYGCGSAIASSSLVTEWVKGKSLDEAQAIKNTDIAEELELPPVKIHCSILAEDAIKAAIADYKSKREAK

As to IscS (from UniProt P0A6B7), in data set [1], the Kd (usually the constant that tells how readily two partners part at equilibrium) is 2 µM.

Consider NFU1 CTD (from UniProt Q9UMS0), for which, in data set [2], the Kd was 1.1 µM.
